Laboratory results: patent publication US20210332142A1 (Genentech, published 2021)
Changes are numbered by the printed parent chain.

T1: recombinant cyno Tie2 extracellular domain (cynomolgus monkey, UniProt Q02763 23-748 (human entry))
T1 construct: also called Recombinant cyno Tie2 ECD; cy Tie2
T1 chain: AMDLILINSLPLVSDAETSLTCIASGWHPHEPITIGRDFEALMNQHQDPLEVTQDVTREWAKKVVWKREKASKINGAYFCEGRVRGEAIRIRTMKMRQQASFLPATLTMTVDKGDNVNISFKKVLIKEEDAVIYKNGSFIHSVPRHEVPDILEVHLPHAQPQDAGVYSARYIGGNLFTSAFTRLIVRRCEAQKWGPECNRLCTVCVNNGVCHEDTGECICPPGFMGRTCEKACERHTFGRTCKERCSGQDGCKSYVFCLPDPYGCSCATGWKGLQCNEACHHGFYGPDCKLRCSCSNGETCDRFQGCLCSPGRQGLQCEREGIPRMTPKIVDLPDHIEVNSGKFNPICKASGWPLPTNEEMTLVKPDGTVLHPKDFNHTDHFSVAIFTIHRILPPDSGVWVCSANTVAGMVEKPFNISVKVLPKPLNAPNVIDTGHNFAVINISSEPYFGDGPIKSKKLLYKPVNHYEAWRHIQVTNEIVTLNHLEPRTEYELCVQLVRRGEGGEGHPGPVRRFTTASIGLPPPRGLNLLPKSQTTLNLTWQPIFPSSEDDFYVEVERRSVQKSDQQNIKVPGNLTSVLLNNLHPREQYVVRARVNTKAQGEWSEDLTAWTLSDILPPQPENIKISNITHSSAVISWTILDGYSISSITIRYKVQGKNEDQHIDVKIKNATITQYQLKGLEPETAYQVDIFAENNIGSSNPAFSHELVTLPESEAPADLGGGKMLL

B1: Tie2.34 (antibody, IgG1, V domains shown)
VH: EVQLVESGGGLVQPGGSLRLSCAASGFTFSDTYIHWVRQAPGKGLEWVAVIYPDNGATYYADSVKGTYYADSVKGRFTISADTSKNTAYLQMNSLRAEDTAVYYCAREFACARCVYGMDYWGQGTLVTVSS
VL: DIQMTQSPSSLSASVGDRVTITCRASQDVSTAVAWYQQKPGKAPKLLIYSASFLYSGVPSRFSGSGSGTDFTLTISSLQPEDFATYYCQQSYTTPPTFGQGTKVEIKR
notes: hIgG1 in Biacore; also called Ab34
B2: Tie2.1.M100cA (antibody, IgG1, name in Kabat numbering, V domains shown)
VH: EVQLVESGGGLVQPGGSLRLSCAASGFTFSNTDISWVRQAPGKGLEWVGRISPSDGNTYYADSVKGRFTISADTSKNTAYLQMNSLRAEDTAVYYCARRTRWASWAADYWGQGTLVTVSS
VL: B1 VL
notes: hIgG1
B3: Tie2.1.M100cH (antibody, IgG1, name in Kabat numbering, V domains shown)
VH: B2 VH with A107H
VL: B1 VL
notes: hIgG1
B4: Tie2.1.M100cR (antibody, IgG1, name in Kabat numbering, V domains shown)
VH: B2 VH with A107R
VL: B1 VL
notes: hIgG1
B5: Tie2.1.M100cW (antibody, IgG1, name in Kabat numbering, V domains shown)
VH: B2 VH with A107W
VL: B1 VL
notes: hIgG1
B6: Tie2.1.M100cG (antibody, IgG1, name in Kabat numbering, V domains shown)
VH: B2 VH with A107G
VL: B1 VL
notes: hIgG1
B7: Tie2.1.M100cK (antibody, IgG1, name in Kabat numbering, V domains shown)
VH: B2 VH with A107K
VL: B1 VL
notes: hIgG1
B8: Tie2.1.M100cY (antibody, IgG1, name in Kabat numbering, V domains shown)
VH: B2 VH with A107Y
VL: B1 VL
notes: hIgG1
B9: Tie2.1.M100cL (antibody, IgG1, name in Kabat numbering, V domains shown)
VH: B2 VH with A107L
VL: B1 VL
notes: hIgG1
B10: Tie2.1.M100cP (antibody, IgG1, name in Kabat numbering, V domains shown)
VH: B2 VH with A107P
VL: B1 VL
notes: hIgG1
B11: Tie2.1.M100cT (antibody, IgG1, name in Kabat numbering, V domains shown)
VH: B2 VH with A107T
VL: B1 VL
notes: hIgG1
B12: Tie2.1.M100cC (antibody, IgG1, name in Kabat numbering, V domains shown)
VH: B2 VH with A107C
VL: B1 VL
notes: hIgG1
B13: Tie2.1.M100cI (antibody, IgG1, name in Kabat numbering, V domains shown)
VH: B2 VH with A107I
VL: B1 VL
notes: hIgG1
B14: Tie2.1.M100cN (antibody, IgG1, name in Kabat numbering, V domains shown)
VH: B2 VH with A107N
VL: B1 VL
notes: hIgG1
B15: Tie2.1.M100cV (antibody, IgG1, name in Kabat numbering, V domains shown)
VH: B2 VH with A107V
VL: B1 VL
notes: hIgG1

The binders below were run against T2, human Tie2ECD.flag (human, UniProt Q02763 23-748) (assay: Biacore, hIgG captured, 25C).
T2 construct: also called hTie2.flag; not shown: C-terminal Flag tag
Procedure: (§1) Monovalent affinities of selected anti-Tie2 hIgGs were determined using a Biacore T200 instrument (GE Life Sciences). Anti-humanFc was covalently immobilized on a Series S CM5 Biacore sensor chip to enable non-covalent capture of anti-Tie2 antibodies and binding of human or rat Tie2ECD.flag was monitored in real time at 25° C. using a multi-cycle kinetics experiment format. Between cycles, the surface was regenerated with 3 M MgCl₂. Monovalent affinities were determined by kinetic analysis, using Biacore Evaluation Software (GE Life Sciences) to fit a 1:1 binding model to the data.

T2 sequence (Q02763 23-748 limits assumed): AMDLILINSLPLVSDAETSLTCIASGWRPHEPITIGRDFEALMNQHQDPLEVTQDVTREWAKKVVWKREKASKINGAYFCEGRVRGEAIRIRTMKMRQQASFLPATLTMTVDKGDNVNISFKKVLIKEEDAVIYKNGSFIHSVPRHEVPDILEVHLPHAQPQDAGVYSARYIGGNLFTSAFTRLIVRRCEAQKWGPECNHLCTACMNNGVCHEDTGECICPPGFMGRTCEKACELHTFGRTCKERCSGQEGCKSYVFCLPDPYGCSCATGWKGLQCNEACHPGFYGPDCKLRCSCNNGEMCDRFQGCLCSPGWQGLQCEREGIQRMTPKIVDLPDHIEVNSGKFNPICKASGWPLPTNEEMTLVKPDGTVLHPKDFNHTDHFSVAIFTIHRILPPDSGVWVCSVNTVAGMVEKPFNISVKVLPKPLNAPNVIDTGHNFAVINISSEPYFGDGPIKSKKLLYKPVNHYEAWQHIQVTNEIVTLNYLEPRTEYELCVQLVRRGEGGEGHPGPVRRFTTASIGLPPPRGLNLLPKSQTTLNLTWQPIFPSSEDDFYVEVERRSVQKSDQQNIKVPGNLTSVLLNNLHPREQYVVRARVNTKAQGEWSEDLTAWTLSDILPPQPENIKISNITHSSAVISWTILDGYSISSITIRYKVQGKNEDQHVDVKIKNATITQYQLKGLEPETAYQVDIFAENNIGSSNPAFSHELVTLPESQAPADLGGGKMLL

| Kd [nM] | Binder |
| --- | --- |
| 155 | B1 |

These binders were tested against T3, rat Tie2ECD.flag (rat, UniProt A0ABK0L6J5 19-740) (assay: Biacore, hIgG captured, 25C).
T3 construct: extracellular domain; also called rTie2.flag; not shown: C-terminal Flag tag
Procedure: as §1

| Kd [nM] | Binder |
| --- | --- |
| 57 | B1 |

These binders were tested against T4, recombinant human Tie2 extracellular domain (human, UniProt Q02763 23-748) (assay: SPR, IgG captured, 37C).
T4 construct: whole entry named; also called Recombinant human Tie2 ECD; hu Tie2
Procedure: (§2) A human antibody capture chip was prepared using a Series S CM5 chip (GE Life Sciences), a human antibody capture kit (GE Life Sciences) and an amine coupling kit (GE Life Sciences). Antibodies diluted to 5 μg/ml in running buffer (10 mM HEPES, 150 mM NaCl, 0.05% Tween 20, 1 mM EDTA, pH 7.4) were non-covalently captured using a contact time of 20 seconds and a flow rate of 10 μl/minute. Binding to 300 nM and 1500 nM recombinant Tie2 was analyzed at 37° C. using a Single Cycle Kinetics method with a contact time of 60 seconds, a dissociation time of 120 seconds and a flow rate of 50 μl/min. Between cycles, the surface was regenerated by a 30 second injection of 3M MgCl₂ at a flow rate of 30 μl/min. Values for antibody capture levels and analyte binding levels were obtained from the Report Point Table (Biacore Evaluation Software v3.0, GE Life Sciences). […] Table 16: Experiment A; Table 17: Experiment B.

T4 sequence (Q02763 23-748 limits assumed): as above

| Normalized Binding Signal, 300 nM | Normalized Binding Signal, 1500 nM | Binder |
| --- | --- | --- |
| 0.03 | 0.14 | B2 |
| 0.11 | 0.39 | B3 |
| 0.06 | 0.22 | B4 |
| 0.08 | 0.31 | B5 |
| 0.06 | 0.21 | B6 |
| 0.13 | 0.41 | B7 |
| 0.15 | 0.47 | B8 |
| 0.12 | 0.41 | B9 |
| 0.02 | 0.11 | B10 |
| 0.02 | 0.1 | B11 |
| 0.11 | 0.37 | B12 |
| 0.03 | 0.14 | B13 |
| 0.11 | 0.38 | B14 |
| 0.04 | 0.16 | B15 |

Molecular target: T1, recombinant cyno Tie2 extracellular …
Experiment: SPR, IgG captured, 37C
Procedure: as §2

| Normalized Binding Signal, 300 nM | Normalized Binding Signal, 1500 nM | Binder |
| --- | --- | --- |
| 0.03 | 0.13 | B2 |
| 0.1 | 0.36 | B3 |
| 0.05 | 0.2 | B4 |
| 0.07 | 0.29 | B5 |
| 0.05 | 0.2 | B6 |
| 0.11 | 0.39 | B7 |
| 0.13 | 0.45 | B8 |
| 0.1 | 0.39 | B9 |
| 0.02 | 0.1 | B10 |
| 0.02 | 0.09 | B11 |
| 0.1 | 0.35 | B12 |
| 0.03 | 0.13 | B13 |
| 0.1 | 0.36 | B14 |
| 0.04 | 0.15 | B15 |

Molecular target: T4, recombinant human Tie2 extracellular …
Experiment: SPR, IgG captured, 37C
Remark: another data set of the same source
Procedure: as §2

| Normalized Binding Signal, 300 nM | Normalized Binding Signal, 1500 nM | Binder |
| --- | --- | --- |
| 0.15 | 0.46 | B8 |
| 0.13 | 0.42 | B9 |
| 0.04 | 0.14 | B13 |

Molecular target: T1, recombinant cyno Tie2 extracellular …
Experiment: SPR, IgG captured, 37C
Remark: another data set of the same source
Procedure: as §2

| Normalized Binding Signal, 300 nM | Normalized Binding Signal, 1500 nM | Binder |
| --- | --- | --- |
| 0.13 | 0.44 | B8 |
| 0.11 | 0.4 | B9 |
| 0.03 | 0.12 | B13 |
